Data: IntAct's records for PubMed 17161399

B1: Protein VAC14 homolog (Homo sapiens), Q08AM6 (parent)
chain: MNPEKDFAPLTPNIVRALNDKLYEKRKVAALEIEKLVREFVAQNNTVQIKHVIQTLSQEFALSQHPHSRKGGLIGLAACSIALGKDSGLYLKELIEPVLTCFNDADSRLRYYACEALYNIVKVARGAVLPHFNVLFDGLSKLAADPDPNVKSGSELLDRLLKDIVTESNKFDLVSFIPLLRERIYSNNQYARQFIISWILVLESVPDINLLDYLPEILDGLFQILGDNGKEIRKMCEVVLGEFLKEIKKNPSSVKFAEMANILVIHCQTTDDLIQLTAMCWMREFIQLAGRVMLPYSSGILTAVLPCLAYDDRKKSIKEVANVCNQSLMKLVTPEDDELDELRPGQRQAEPTPDDALPKQEGTASGGPDGSCDSSFSSGISVFTAASTERAPVTLHLDGIVQVLNCHLSDTAIGMMTRIAVLKWLYHLYIKTPRKMFRHTDSLFPILLQTLSDESDEVILKDLEVLAEIASSPAGQTDDPGPLDGPDLQASHSELQVPTPGRAGLLNTSGTKGLECSPSTPTMNSYFYKFMINLLKRFSSERKLLEVRGPFIIRQLCLLLNAENIFHSMADILLREEDLKFASTMVHALNTILLTSTELFQLRNQLKDLKTLESQNLFCCLYRSWCHNPVTTVSLCFLTQNYRHAYDLIQKFGDLEVTVDFLAEVDKLVQLIECPIFTYLRLQLLDVKNNPYLIKALYGLLMLLPQSSAFQLLSHRLQCVPNPELLQTEDSLKAAPKSQKADSPSIDYAELLQHFEKVQNKHLEVRHQRSGRGDHLDRRVVL

Variants of: B1
Details: with nos1_human NOS1, P29475
Sequence of nos1_human NOS1, P29475 (P29475 whole entry): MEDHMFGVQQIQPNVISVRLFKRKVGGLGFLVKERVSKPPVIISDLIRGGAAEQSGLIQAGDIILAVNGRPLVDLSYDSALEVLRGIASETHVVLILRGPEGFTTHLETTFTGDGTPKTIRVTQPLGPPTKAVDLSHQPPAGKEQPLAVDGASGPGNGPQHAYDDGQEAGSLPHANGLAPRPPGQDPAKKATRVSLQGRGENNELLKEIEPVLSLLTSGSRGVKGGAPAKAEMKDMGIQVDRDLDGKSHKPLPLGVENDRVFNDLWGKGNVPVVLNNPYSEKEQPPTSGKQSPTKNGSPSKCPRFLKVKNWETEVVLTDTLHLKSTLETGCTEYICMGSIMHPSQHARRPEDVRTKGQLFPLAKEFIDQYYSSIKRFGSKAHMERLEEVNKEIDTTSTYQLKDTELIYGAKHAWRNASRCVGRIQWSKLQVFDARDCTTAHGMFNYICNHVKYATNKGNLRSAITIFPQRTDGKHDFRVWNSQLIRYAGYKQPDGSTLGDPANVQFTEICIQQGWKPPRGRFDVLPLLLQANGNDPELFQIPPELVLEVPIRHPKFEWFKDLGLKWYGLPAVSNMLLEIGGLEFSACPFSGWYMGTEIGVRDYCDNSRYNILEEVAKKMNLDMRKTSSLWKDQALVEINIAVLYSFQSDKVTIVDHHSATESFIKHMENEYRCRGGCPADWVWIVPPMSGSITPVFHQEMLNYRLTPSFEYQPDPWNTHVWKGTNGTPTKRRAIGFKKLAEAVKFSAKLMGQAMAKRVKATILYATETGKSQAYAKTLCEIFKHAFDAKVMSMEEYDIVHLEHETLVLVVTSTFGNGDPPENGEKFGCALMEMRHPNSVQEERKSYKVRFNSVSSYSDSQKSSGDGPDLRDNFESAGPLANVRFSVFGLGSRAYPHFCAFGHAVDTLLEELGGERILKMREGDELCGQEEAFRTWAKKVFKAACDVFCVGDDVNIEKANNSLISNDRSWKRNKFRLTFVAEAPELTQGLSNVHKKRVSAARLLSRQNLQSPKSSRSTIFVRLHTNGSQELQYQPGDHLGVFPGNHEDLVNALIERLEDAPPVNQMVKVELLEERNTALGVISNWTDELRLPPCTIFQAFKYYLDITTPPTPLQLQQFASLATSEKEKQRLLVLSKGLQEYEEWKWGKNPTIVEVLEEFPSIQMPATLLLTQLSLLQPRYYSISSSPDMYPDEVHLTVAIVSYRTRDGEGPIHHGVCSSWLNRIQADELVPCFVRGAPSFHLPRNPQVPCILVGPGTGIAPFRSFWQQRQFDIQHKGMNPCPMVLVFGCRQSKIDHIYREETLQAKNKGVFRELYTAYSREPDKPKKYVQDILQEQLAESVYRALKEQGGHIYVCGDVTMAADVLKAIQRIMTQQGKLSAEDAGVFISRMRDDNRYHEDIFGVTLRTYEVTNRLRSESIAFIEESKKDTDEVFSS

Variant	effect of a mutation on the interaction
D777A	disrupting interaction

Variants of: B1
Details: with nos1_human NOS1, P29475
Remark: another data set of the same source

Variant	effect of a mutation on the interaction
G773A	decreasing interaction
D774A	disrupting interaction
L776A	disrupting interaction
